From the supplement of paper PMC10567573

B1: NFE2L1 (parent)
chain: TLDGYGIHPKSIDLDNYFTARRLL
B2: TRAF3IP2 (parent)
chain: KEHVPTWLQNTHVYSWPKNKKNIL

Variants of: B1
Assay: protein stability index of a GFP-peptide fusion (GPS, HEK-293T) (PSI 1-6); higher = more stable
Conditions: c terminus: a fixed tail appended
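Note: lentivirally expressed fusions sorted by FACS into six bins by GFP to DsRed ratio, PSI derived from sequencing read proportions per bin multiplied by bin number.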

Protein stability index: each site, then its substitutions
T19: L 1.26; K 2.46; G 1.89; F 1.71; H 2.32; M 1.67; E 2.09
S11: F 2.29; E 2.28; H 1.89; K 2.58; C 1.98; M 1.57; I 1.4; D 2.38; G 1.91
H8: K 2.07; C 1.87; V 2.28; W 1.66; F 1.95; D 2.02; L 1.67; I 1.98
T1: M 1.77; C 1.92; W 3.41; P 2.37; E 1.54; Y 2.32
L2: G 1.86; M 2.04; R 1.92; Y 1.74
Y17: Q 2.92; V 2.21; G 2.32; E 3.09; P 3.23; C 1.71
L24: S 2.48; G 2.56; H 2.14; V 2.08; M 2.5; F 2.42
I7: R 2.04; M 1.75; K 1.75; G 1.92; F 1.62; L 1.7
A20: D 2.76; R 2.17; G 1.71; W 2.04; Y 1.92; L 1.53; S 2.03; M 1.96
I12: P 3.06; Q 2.33; M 1.75; V 1.85; Y 1.99; L 1.66
N16: F 2.63; Q 1.8; G 1.21; Y 2.19; D 2.03; R 1.82; E 2.19
K10: P 1.73; V 1.5; C 2.54; H 2.2; L 2.01
G6: Q 1.94; F 2.69; D 1.54; I 1.58; W 1.54
L14: D 2.71; R 2.1; F 1.82; Q 2.21; A 2.2; G 2.31; S 2.62; E 3.11; K 2.49; Y 2.25
D3: K 2.34; L 2.58; R 2.33; W 1.47; A 2.61; G 1.65; Q 1.79; Y 2.25; E 2.14
G4: W 1.91; V 1.22; K 1.53; S 2.13; A 1.73; C 1.43; D 2.57
L23: M 2.03; C 2.41; V 1.66; S 3.05; G 2.42; R 3.19
R22: Y 1.89; A 1.49; P 1.97; G 2.53; V 1.71
Y5: E 2.21; S 2.05; W 1.97; I 2.21
D13: F 1.48; P 2.26; R 1.91; V 1.76; K 1.72; A 1.84
F18: L 1.89; N 3; Y 1.99; C 2.03; I 1.92
P9: I 2.39; H 2.14; M 2.05; Y 1.68; F 1.55; D 1.88; N 2.66; A 1.68
D15: N 2.2; E 1.96; T 1.77; Q 1.84; Y 1.46; V 1.72
R21: T 1.56; K 1.96; N 1.8; A 1.67; P 2.05

Variants of: B2
Assay: as above
Conditions: c terminus: a fixed tail appended

Protein stability index of substitutions, site by site:
S15: M 2.23; V 2.43; P 2.7; K 2.77; N 2.21; Y 2.27; W 1.68; T 2.54; L 2.22; I 1.7; Q 2.49; R 3.12
L24: Q 2.98; M 2.73; K 3.49; G 3.93; T 3.18; N 3.08; S 2.51; Y 2.51; P 2.98; D 3.24; I 2.67; A 3.28; F 2.2; E 2.84; W 1.86; R 3.49; V 2.47; C 2.69; H 3.17
N22: M 2.19; H 2.08; G 2.7; K 2.9; R 2.2; P 2.84; Q 2.72; V 2.51; L 1.7; C 1.71; F 1.67; S 1.97; A 2.41; Y 1.56; D 2.04; E 2.64; T 2.75; I 1.5
K21: P 2.79; W 1.97; C 2.3; T 2.65; F 1.8; S 2.24; L 2.18; N 1.93; A 2.08; R 2.05; H 2.17; M 1.95; I 2.12; Q 2.27; D 2.73; V 2.03; G 2.31; Y 1.83; E 2.68
W16: L 3.02; K 2.81; C 2.88; S 3.08; I 3.05; P 3.82; Y 3; Q 3.36; H 3.39; T 3.68; A 3.35; D 3.53; F 2.7; N 3.39; R 3.9; G 3.55; M 2.75; V 2.88; E 3.77
P17: S 2.81; I 2.1; T 2.29; E 2.23; F 2.18; K 2.31; H 2.21; A 2.22; Q 2.95; W 2.1; Y 2.03; D 2.71; L 1.85; N 1.95; V 1.98; C 2.36; G 2.17
K20: P 2.72; Y 1.81; D 2.31; L 1.74; Q 2.25; R 2.29; E 2.54; F 1.59; A 1.94; M 1.58; G 2.18; N 2.02; H 2.21; I 3.38; T 2.96; C 1.89; S 2.64; W 2.07; V 1.99
K18: N 2.81; Y 3.3; L 2.41; S 2.1; R 3.38; G 2.53; Q 3.64; I 2.05; T 2.52; E 2.88; D 2.17; V 2.14; P 3.12; H 2.37; W 1.91; C 2.33; F 2.12; A 2.66; M 2.42
I23: G 2.96; Y 3.55; D 3.75; A 2.89; K 3.52; L 2.68; F 2.69; T 2.54; P 2.54; M 2.91; W 2.3; R 3.74; C 3.02; V 3.07; H 3.19; Q 2.75; E 3.54; S 2.94; N 3.19
N19: S 2.61; L 1.55; R 2.3; A 2.81; V 2.34; T 2.01; M 1.97; Y 2.03; Q 2.51; P 2.43; K 2.06; C 2.98; G 2.56; E 2.72; I 2.08; F 2.02; W 1.4; D 3.03; H 2.19
